Source: patent US20230192789A1, “STRUCTURALLY-STABILIZED AND HDMX-SELECTIVE P53 PEPTIDES AND USES THEREOF” (Dana-Farber Cancer Institute, Inc., priority 2020, published 2023)
“Also recorded” adds a separate entry of the source. Each block holds one molecule with its values, some of them ahead of it. Bridges are numbered along the chain shown (N, C = ends). Where no end group is shown, it is not given here. [ ]: non-standard residue; d: D form. The star is where a group is joined. Biotin = O=C1N[C@H]2[C@H](CS[C@H]2CCCCC(=O)*)N1; R8 = C=CCCCCCC[C@@](C)(N)C(=O)O; S5 = C=CCCC[C@](C)(N)C(=O)O

Key:
OCI-AML2 cells [1] = test: LDH release assay, OCI-AML2; format: cell-based; conditions: OCI-AML2, 90 minutes after peptide treatment, highest dosing level
Protocol: (§1) LDH release assay: To assess the release of lactate dehydrogenase (LDH) upon treatment with a structurally-stabilized peptide described herein, an LDH release assay can be used. Cultured cells, including, e.g., cancer cells and HUVEC cells, are plated in 96-well format (2x10^4 cells per well; including overnight incubation for adherent cells) and then treated with serial dilutions of structurally-stabilized peptides in a final volume of 100 µL and incubated at 37° C. for the indicated time period (e.g., 90 minutes). The plates are spun down at 1500 rpm for 5 minutes at 4° C., and 80 µL of cell culture media is transferred to a clear plate (Corning), incubated with 80 µL of LDH reagent (Roche) for 15 minutes while shaking, and absorbance is measured at 490 nm on a microplate reader (SpectraMax M5 Microplate Reader, Molecular Devices).
(§2) LDHRelease Assay: OCI-AML2 cells (1 × 10^4 cells/well) were plated in 96-well plates and treated with the indicated peptides or vehicle (0.2% DMSO). After 1.5 hours incubation at 37° C., 100 µl of cell medium was transferred to a 96-well clear plate and incubated with 100 µl of LDH reagent (Roche) for 25 minutes while shaking, and absorbance at 490 nm measured on a microplate reader (SpectraMax M5 Microplate Reader, Molecular Devices).

EOL-1 cells = test: LDH release assay, EOL-1; format: cell-based; conditions: EOL-1, 90 minutes after peptide treatment, highest dosing level
Protocol: as §1, §2

native HDMX = target: T1, native HDMX (Homo sapiens, UniProt O15151); test: Streptavidin pull-down from cancer cell lysates, HDMX western; format: binding
T1 construct: high fidelity selectivity for native HDMX from cells; endogenous in cells; host or cells: EOL-1 and OCI-AML2 lysates (endogenous); SJSA-X lysates (cells engineered to express HDMX)
T1 sequence (O15151 1-490): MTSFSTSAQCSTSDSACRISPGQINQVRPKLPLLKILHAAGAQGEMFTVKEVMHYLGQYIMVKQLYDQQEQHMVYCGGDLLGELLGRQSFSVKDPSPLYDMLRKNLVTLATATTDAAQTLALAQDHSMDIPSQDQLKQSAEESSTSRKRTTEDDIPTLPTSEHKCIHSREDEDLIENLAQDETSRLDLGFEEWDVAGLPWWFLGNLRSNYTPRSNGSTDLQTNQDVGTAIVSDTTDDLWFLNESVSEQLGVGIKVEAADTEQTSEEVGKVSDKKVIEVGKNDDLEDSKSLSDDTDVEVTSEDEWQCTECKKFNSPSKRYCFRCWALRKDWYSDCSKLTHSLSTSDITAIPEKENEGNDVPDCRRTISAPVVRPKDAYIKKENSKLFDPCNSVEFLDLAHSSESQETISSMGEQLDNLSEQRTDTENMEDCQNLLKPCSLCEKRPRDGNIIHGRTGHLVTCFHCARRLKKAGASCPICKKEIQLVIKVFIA
Protocol: (§3) In order to determine if the insights gleaned from the biochemical and structural analyses (Examples 1 and 2, above) informed the development of a stapled p53 peptide with high fidelity selectivity for native HDMX from cells, binding assays were performed using cellular lysates from both hematologic (FIG. 16A) and solid (FIG. 16B) cancers.
(§4) Streptavidin Pull-Down - Cell Lysates: Cultured cells were trypsinized, washed once with cold PBS, and lysed on ice for 30 minutes in lysis buffer (0.5% NP-40, 150 mM NaCl, 50 mM Tris pH 7.4). Protein concentration of the isolated supernatant was determined by Bradford reagent. Lysate samples (2 mg) were incubated with vehicle (0.6% DMSO) or biotinylated peptides (15 nmole) overnight in lysis buffer at 4° C. […] Bead-bound proteins were eluted by addition of 50 µl 2x LDS supplemented with DTT and boiling for 10 minutes. Eluted proteins were then subjected to electrophoresis and western blotting using HDM2 (IF2, EMD Millipore, 1:200) and MDM4 (A300-287A; Bethyl Laboratories, 1:1000) antibodies.

[2] = target: T2, recombinant HDMX (amino acids 1-490 of SEQ ID NO:104) (Homo sapiens, UniProt O15151); test: Competitive streptavidin pull-down of biotinylated peptides with 1:1 recombinant HDM2/HDMX mixture, HDMX western; format: binding; conditions: biotinylated stapled peptide, 1:1 mixture of recombinant HDM2 and HDMX
T2 construct: thioredoxin (N, cleaved yes); S tag (N, cleaved yes); hexahistidine (N, cleaved yes); made in house; host or cells: E. coli (inferred: pET32-LIC vector, handled as described for HDM2 in BL21(DE3))
T2 sequence (O15151 1-490): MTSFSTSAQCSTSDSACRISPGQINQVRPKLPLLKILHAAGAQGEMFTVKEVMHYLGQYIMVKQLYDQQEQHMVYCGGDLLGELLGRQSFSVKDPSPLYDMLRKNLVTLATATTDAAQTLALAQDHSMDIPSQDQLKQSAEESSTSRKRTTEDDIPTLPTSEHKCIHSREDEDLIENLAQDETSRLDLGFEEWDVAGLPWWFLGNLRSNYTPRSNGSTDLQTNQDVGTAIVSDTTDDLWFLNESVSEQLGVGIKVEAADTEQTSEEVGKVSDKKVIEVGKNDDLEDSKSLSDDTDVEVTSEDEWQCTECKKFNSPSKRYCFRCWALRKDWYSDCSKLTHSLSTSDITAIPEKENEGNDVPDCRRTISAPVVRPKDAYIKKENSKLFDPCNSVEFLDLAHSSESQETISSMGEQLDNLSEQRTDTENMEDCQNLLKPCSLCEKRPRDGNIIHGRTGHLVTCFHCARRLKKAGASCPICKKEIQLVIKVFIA

[3] = tested on: wild-type, Y99F, and Y99A HDMX (full-length); test: Streptavidin pull-down with wild-type, Y99F and Y99A HDMX proteins; conditions: biotinylated peptide, full-length HDMX proteins incubated individually, HDMX western
Protocol: The peptide-protein complex was then incubated with pre-blocked (3% BSA, 2 hours, 4° C.) and equilibrated high-capacity Streptavidin agarose beads (30 µl per pull-down) for 2 hours at 4° C. The beads were washed three times each with 1% NP-40/FPLC buffer, T-BST and PBS. Bound protein was eluted from the beads by 10 minutes of boiling in 2x LDS supplemented with DTT, and then subjected to electrophoresis (input 10%, eluates 10 µL, 4-12% or 10% Bis-Tris gel) and western blot analysis. For comparative HDMX protein pull-downs, wild-type, Y99A, and Y99F HDMX proteins were individually incubated with biotinylated peptides and streptavidin pull-downs performed as above.

native HDM2 = target: T3, native HDM2 (Homo sapiens, UniProt Q00987); test: Streptavidin pull-down from cancer cell lysates, HDM2 western; format: binding
T3 construct: in the context of the native proteins from cancer cell lysates; endogenous in cells; host or cells: EOL-1, OCI-AML2, SJSA-X cell lysates
Protocol: as §3, §4

OCI-AML2 cells [4] = test: Cell viability (CellTiter-Glo), OCI-AML2; conditions: OCI-AML2, 48 and 72 hours of treatment, acetylated stapled peptide
EOL-1 cancer cells = test: Cell viability, EOL-1; conditions: EOL-1, 48 and 72 hours of treatment, acetylated stapled peptide
[5] = target: T4, recombinant HDM2 (amino acids 17-125 of SEQ ID NO:103) (human, UniProt Q00987 17-125); test: streptavidin pull-down of biotinylated peptide with recombinant HDM2 and HDMX (1:1 mixture per paragraph 301), western blot
T4 construct: also called MDM2; not shown: thrombin cleavage site (pET28a vector)

[6] = target: T4, recombinant HDM2 (amino acids 17-125 of …); test: isothermal titration calorimetry, peptide titrated into HDM2
[7] = target: T4, recombinant HDM2 (amino acids 17-125 of …); test: fluorescence polarization, FITC-labelled peptide titrated with HDM2
[8] = target: T4, recombinant HDM2 (amino acids 17-125 of …); test: isothermal titration calorimetry, peptide titrated into HDM2; remark: listed apart in the source
[9] = EOL-1, OCI-AML2, and SJSA-X cancer cell lysates
[10] = EOL-1 and OCI-AML2 leukemia cell lysates, biotinylated peptide
[11] = SJSA-X osteosarcoma cell lysates, biotinylated peptide

T4 sequence (Q00987 other isoform, or with tags, fused parts or gaps): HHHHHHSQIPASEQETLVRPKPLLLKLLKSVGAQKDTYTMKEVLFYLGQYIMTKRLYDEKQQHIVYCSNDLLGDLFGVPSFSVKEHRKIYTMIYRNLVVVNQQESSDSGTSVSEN
T3 sequence (Q00987 whole entry): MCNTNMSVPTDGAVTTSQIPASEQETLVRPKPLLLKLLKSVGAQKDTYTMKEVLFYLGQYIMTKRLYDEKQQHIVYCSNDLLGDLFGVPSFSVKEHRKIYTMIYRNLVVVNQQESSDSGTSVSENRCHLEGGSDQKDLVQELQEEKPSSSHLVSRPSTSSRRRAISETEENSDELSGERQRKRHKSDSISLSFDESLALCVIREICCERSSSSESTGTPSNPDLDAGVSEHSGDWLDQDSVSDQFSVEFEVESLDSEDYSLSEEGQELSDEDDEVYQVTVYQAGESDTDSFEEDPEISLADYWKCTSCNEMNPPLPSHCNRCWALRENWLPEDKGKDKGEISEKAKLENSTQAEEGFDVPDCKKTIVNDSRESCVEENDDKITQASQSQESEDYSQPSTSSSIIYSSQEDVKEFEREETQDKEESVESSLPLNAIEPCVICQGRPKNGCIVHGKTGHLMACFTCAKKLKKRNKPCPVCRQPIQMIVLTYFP

Molecule: CC(=O)N[C@@H](CC(C)C)C(=O)N[C@H](C(=O)N[C@@H](Cc1ccccc1)C(=O)N[C@]1(C)CCCCCCC=CCCC[C@@](C)(C(=O)N[C@@H](CO)C(=O)N[C@@H](C)C(=O)N[C@@H](C)C(N)=O)NC(=O)[C@H](CCC(=O)O)NC(=O)[C@H](CCC(N)=O)NC(=O)[C@H](C)NC(=O)[C@H](Cc2c[nH]c3ccccc23)NC(=O)[C@H](Cc2ccc(O)cc2)NC(=O)[C@H](CCC(=O)O)NC1=O)[C@@H](C)O [ATSP-7041 B26E, LTF8EYWAQEXSAA]
non-specific membrane disruption (LDH release) (OCI-AML2 cells [1]): no non-specific membrane disruptive activity
non-specific membrane disruption (LDH release) (EOL-1 cells): no non-specific membrane disruptive activity

Molecule: QSQQTF8NLWRLLXQN [SAH-p53-8, reference compound]
native HDMX binding (native HDMX; [9]): effectively engaged
native HDMX binding (native HDMX; [10]): binds
native HDMX binding (native HDMX; [11]): binds
HDMX versus HDM2 binding selectivity [2]: dual-targeting HDM2/HDMX
interaction with Y99F and Y99A HDMX [3]: retained interaction; also recorded: effectively bind
native HDM2 binding (native HDM2; [9]): effectively engaged
native HDM2 binding (native HDM2; [10]): binds
native HDM2 binding (native HDM2; [11]): binds

HDMX versus HDM2 binding selectivity [2]: selectivity to HDMX
Molecule: COC(=O)CC[C@@H]1NC(=O)[C@H](CCC(N)=O)NC(=O)[C@H](C)NC(=O)[C@H](Cc2c[nH]c3ccccc23)NC(=O)[C@H](Cc2ccc(O)cc2)NC(=O)[C@H](CCC(=O)O)NC(=O)[C@](C)(NC(=O)[C@H](Cc2ccccc2)NC(=O)[C@@H](NC(=O)[C@H](CC(C)C)NC(C)=O)[C@@H](C)O)CCCCCCC=CCCC[C@@](C)(C(=O)N[C@@H](CO)C(=O)N[C@@H](C)C(=O)N[C@@H](C)C(N)=O)NC1=O [ATSP-7041 B26E(OMe), LTF8EYWAQ#XSAA]
cancer cell cytotoxicity (OCI-AML2 cells [4]): dose-responsive cancer cell cytotoxicity; also recorded: enhance killing activity
non-specific membrane disruption (LDH release) (OCI-AML2 cells [1]): no non-specific membrane disruptive activity
cancer cell cytotoxicity (EOL-1 cancer cells): dose-responsive cancer cell cytotoxicity; also recorded: enhance killing activity
non-specific membrane disruption (LDH release) (EOL-1 cells): no non-specific membrane disruptive activity

Molecule: QSQQTF8NLWRLEXQN (QSQQTF[R8]NLWRLE[S5]QN; staple 7-14) [SAH-p53-8 L26E]
native HDMX binding (native HDMX; [9]): preserved
native HDMX binding (native HDMX; [10]): selective interaction with HDMX
native HDMX binding (native HDMX; [11]): predominant HDMX interaction
HDMX interaction [2]: robust HDMX-binding activity
HDMX versus HDM2 binding selectivity [2]: exquisite binding selectivity for HDMX; also recorded: HDMX-selective
interaction with Y99F and Y99A HDMX [3]: significantly impaired; also recorded: markedly impair interaction
native HDM2 binding (native HDM2; [9]): markedly impaired or abrogated
native HDM2 binding (native HDM2; [10]): abrogates HDM2 binding
native HDM2 binding (native HDM2; [11]): impairs HDM2 interaction

binding result [5]: no binding
B1: SAH-p53-8 L26E (peptide)
peptide: Biotin-QSQQTF[R8]NLWRLE[S5]QN-NH2
modifications: staple 7-14
notes: also called QSQQTF8NLWRLEXQN

Kd [6]: 20.4 nM
Kd [7]: 12 nM
B2: SAH-p53-4 (peptide)
peptide: LSQETF[R8]DLWKLL[S5]EN
modifications: staple 7-14; also: N-terminus biotin, acetyl or FITC depending on assay
notes: One entry for the peptide; also called wild-type SAH-p53-4; LSQETF8DLWKLLXEN

Kd [7]: 149 nM
Kd [8]: 256 nM
B3: SAH-p53-4 L26E (peptide)
peptide: LSQETF[R8]DLWKLE[S5]EN
modifications: staple 7-14; also: N-terminus biotin, acetyl or FITC depending on assay
